Experiments:
[1] = target: T1, MBP-Miz-1-ZF (Homo sapiens) (UniProt Q13105); experiment: competition; settings: EMSA: ZBA (10 mM Tris pH 7.5, 90 mM KCl, 1 mM MgCl2, 90 uM ZnCl2, 5 mM DTT) with 100 ng/ul poly(dI-dC), 15 min, room temperature, 5% acrylamide gel in 0.5X …
T1 sequence (Q13105 269-793, looked up): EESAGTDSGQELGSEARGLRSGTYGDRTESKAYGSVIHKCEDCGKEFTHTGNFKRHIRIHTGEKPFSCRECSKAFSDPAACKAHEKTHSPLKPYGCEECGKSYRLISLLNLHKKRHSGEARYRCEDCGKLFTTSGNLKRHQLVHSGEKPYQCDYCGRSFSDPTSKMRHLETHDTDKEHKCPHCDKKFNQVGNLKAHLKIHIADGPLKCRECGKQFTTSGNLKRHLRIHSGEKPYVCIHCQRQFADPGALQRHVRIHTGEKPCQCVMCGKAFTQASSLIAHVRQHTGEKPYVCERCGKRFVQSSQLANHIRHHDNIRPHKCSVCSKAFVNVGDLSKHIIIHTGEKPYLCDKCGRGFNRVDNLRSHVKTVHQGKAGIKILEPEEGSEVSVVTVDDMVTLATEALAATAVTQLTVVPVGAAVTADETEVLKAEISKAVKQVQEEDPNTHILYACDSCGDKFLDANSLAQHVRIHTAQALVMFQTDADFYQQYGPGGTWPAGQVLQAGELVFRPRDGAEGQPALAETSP

Cux1 = Cux1 (UniProt P39880); experiment: EMSA; settings: EMSA: ZBA (10 mM Tris pH 7.5, 90 mM KCl, 1 mM MgCl2, 90 uM ZnCl2, 5 mM DTT) with 100 ng/ul poly(dI-dC), 15 min, room temperature, 5% acrylamide gel in 0.5X …
Miz-1 untagged = target: T2, Miz-1 untagged (Homo sapiens, UniProt Q13105 1-803); experiment: EMSA; EMSA: ZBA (10 mM Tris pH 7.5, 90 mM KCl, 1 mM MgCl2, 90 uM ZnCl2, 5 mM DTT) with 100 ng/ul poly(dI-dC), 15 min, room temperature; 5% acrylamide gel in 0.5X Tris-borate at 4 C; settings: protein: ivt; tags: none; label: 5' IRDye 700; blunt
T2 sequence: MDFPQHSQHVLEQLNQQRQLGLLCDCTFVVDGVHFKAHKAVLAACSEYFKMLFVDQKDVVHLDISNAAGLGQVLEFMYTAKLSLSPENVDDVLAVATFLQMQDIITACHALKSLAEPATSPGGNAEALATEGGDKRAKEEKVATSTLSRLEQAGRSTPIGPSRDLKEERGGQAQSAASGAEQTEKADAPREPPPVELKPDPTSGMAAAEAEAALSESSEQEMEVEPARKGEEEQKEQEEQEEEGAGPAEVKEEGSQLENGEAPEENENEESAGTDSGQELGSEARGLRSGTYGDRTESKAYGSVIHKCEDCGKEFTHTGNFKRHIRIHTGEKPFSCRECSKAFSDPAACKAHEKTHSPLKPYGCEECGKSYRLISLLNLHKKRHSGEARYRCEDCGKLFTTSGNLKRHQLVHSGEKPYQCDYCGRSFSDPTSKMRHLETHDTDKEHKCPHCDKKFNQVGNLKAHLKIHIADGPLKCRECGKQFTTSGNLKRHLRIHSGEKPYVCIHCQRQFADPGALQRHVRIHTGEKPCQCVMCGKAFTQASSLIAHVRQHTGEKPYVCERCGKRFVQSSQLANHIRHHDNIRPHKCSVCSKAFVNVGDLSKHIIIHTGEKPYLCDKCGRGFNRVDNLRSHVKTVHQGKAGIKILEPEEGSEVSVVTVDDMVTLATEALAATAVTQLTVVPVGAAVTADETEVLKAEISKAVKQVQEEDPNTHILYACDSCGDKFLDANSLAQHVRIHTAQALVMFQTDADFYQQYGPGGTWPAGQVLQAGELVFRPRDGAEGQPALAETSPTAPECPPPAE

[2] = target: T3, Miz-1 (Figure 7 preparation) (UniProt Q13105 1-803); experiment: as above; settings: protein: ivt; label: 5' IRDye 700; blunt
T3 sequence: T2 sequence

MBP-Miz-1-FL [3] = target: T4, MBP-Miz-1-FL (Homo sapiens, UniProt Q13105 1-803); experiment: as above; settings: protein: recombinant; tags: N-terminal MBP; label: 5' IRDye 700; blunt
T4 sequence: T2 sequence

MBP-Miz-1-FL [4] = target: T4, MBP-Miz-1-FL; experiment: competition; unlabeled P1m3 vs labeled P1 or P2; range over both proteins and probes; EMSA: ZBA (10 mM Tris pH 7.5, 90 mM KCl, 1 mM MgCl2, 90 uM ZnCl2, 5 mM DTT) with 100 ng/ul poly(dI-dC), 15 min, room temperature; 5% acrylamide gel in 0.5X Tris-borate at 4 C; settings: protein: recombinant; tags: N-terminal MBP; blunt
MBP-Miz-1-FL [5] = target: T4, MBP-Miz-1-FL; experiment: competition; 200-fold unlabeled P2 vs labeled P1; EMSA: ZBA (10 mM Tris pH 7.5, 90 mM KCl, 1 mM MgCl2, 90 uM ZnCl2, 5 mM DTT) with 100 ng/ul poly(dI-dC), 15 min, room temperature; 5% acrylamide gel in 0.5X Tris-borate at 4 C; settings: protein: recombinant; tags: N-terminal MBP; label: 5' IRDye 700 (labeled version); blunt
MBP-Miz-1-FL [6] = target: T4, MBP-Miz-1-FL; experiment: competition; 200-fold unlabeled P2 vs labeled P2; EMSA: ZBA (10 mM Tris pH 7.5, 90 mM KCl, 1 mM MgCl2, 90 uM ZnCl2, 5 mM DTT) with 100 ng/ul poly(dI-dC), 15 min, room temperature; 5% acrylamide gel in 0.5X Tris-borate at 4 C; settings: protein: recombinant; tags: N-terminal MBP; label: 5' IRDye 700 (labeled version); blunt
MBP-Miz-1-FL [7] = target: T4, MBP-Miz-1-FL; experiment: competition; 200-fold unlabeled P1 vs labeled P1; EMSA: ZBA (10 mM Tris pH 7.5, 90 mM KCl, 1 mM MgCl2, 90 uM ZnCl2, 5 mM DTT) with 100 ng/ul poly(dI-dC), 15 min, room temperature; 5% acrylamide gel in 0.5X Tris-borate at 4 C; settings: protein: recombinant; tags: N-terminal MBP; label: 5' IRDye 700 (labeled version); blunt
MBP-Miz-1-FL [8] = target: T4, MBP-Miz-1-FL; experiment: competition; 200-fold unlabeled P1 vs labeled P2; EMSA: ZBA (10 mM Tris pH 7.5, 90 mM KCl, 1 mM MgCl2, 90 uM ZnCl2, 5 mM DTT) with 100 ng/ul poly(dI-dC), 15 min, room temperature; 5% acrylamide gel in 0.5X Tris-borate at 4 C; settings: protein: recombinant; tags: N-terminal MBP; label: 5' IRDye 700 (labeled version); blunt
[9] = target: T3, Miz-1 (Figure 7 preparation); experiment: EMSA; EMSA: ZBA (10 mM Tris pH 7.5, 90 mM KCl, 1 mM MgCl2, 90 uM ZnCl2, 5 mM DTT) with 100 ng/ul poly(dI-dC), 15 min, room temperature; 5% acrylamide gel in 0.5X Tris-borate at 4 C; settings: protein: ivt; label: 5' IRDye 700 (labeled version); blunt

Sequence of Cux1 (P39880 whole entry): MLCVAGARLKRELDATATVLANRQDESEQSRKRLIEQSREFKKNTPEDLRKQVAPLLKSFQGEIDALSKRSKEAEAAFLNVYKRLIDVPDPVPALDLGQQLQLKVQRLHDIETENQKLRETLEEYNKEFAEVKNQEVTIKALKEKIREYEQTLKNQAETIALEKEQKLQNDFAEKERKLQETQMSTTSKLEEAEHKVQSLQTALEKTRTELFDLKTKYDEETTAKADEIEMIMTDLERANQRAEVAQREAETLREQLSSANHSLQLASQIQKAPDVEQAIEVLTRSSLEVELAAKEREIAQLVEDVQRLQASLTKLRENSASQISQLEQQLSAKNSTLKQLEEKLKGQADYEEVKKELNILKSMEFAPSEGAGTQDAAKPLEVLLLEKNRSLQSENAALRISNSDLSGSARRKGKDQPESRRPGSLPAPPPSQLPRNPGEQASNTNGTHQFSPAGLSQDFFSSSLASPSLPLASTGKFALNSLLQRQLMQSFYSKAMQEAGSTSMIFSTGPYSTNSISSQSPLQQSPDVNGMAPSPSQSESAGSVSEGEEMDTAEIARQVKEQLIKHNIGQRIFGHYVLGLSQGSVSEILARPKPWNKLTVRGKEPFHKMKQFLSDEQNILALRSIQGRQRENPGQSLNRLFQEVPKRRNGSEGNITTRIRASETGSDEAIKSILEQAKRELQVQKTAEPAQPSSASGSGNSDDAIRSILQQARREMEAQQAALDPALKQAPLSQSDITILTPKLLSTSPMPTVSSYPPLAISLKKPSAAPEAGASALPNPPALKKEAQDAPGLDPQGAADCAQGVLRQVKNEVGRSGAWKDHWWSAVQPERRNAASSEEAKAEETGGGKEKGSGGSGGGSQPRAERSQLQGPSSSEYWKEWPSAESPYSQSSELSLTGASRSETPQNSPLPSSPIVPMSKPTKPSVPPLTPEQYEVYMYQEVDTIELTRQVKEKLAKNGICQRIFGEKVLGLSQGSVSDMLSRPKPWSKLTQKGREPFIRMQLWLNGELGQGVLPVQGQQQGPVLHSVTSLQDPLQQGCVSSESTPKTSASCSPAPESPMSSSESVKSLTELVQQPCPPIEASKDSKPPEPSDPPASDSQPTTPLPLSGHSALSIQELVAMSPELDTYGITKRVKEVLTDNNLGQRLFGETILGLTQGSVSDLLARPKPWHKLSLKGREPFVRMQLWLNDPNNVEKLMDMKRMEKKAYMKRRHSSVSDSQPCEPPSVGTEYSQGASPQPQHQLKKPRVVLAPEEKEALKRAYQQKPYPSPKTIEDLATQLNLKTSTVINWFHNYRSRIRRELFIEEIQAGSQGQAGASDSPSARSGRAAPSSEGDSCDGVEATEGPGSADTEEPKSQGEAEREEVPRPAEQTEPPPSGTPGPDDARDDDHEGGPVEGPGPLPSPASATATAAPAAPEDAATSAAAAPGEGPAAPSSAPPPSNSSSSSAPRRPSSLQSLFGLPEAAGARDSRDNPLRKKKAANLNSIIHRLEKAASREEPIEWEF

GAATTATCGGTAATCCATCGAGGT (double strand) [P1]
binding signal (% reduction of bound labeled P1) ([1]; 200-fold unlabeled P1 vs labeled P1): 87 | binding signal (Cux1; scale: bound intensity relative to P2): 0.5

GAATTATCCGTAATGCATCGAGGT (double strand) [P1m2]
binding signal (% reduction of bound labeled P1) ([1]; unlabeled P1m2 vs labeled P1, competition nearly eliminated): 24

AGGGTTGGTATCGATTATCGAGTT (double strand) [P2]
binding signal (fold bound intensity P2 over P1) (Cux1): 2

GAATTAGGAGTAAACCATCGAGGT (double strand) [P1m1]
binding signal (% reduction of bound labeled P1) ([1]; unlabeled P1m1 vs labeled P1, competition nearly eliminated): 7

B1: CP (dsDNA)
DNA 1: CAAAAGTGCGGCTGCGTGGTGCAC
DNA 2: GTGCACCACGCAGCCGCACTTTTG
binding result (Miz-1 untagged): no binding | binding result [2]: no binding | binding result (MBP-Miz-1-FL [3]): no binding

B2: P1m3 (dsDNA)
DNA 1: ACCCTTATATCGGTAATCGGTAAG
DNA 2: CTTACCGATTACCGATATAAGGGT
binding result (MBP-Miz-1-FL [4]): binds

B3: P2 (dsDNA)
DNA 1: AGGGTTGGTATCGATTATCGAGTT
DNA 2: AACTCGATAATCGATACCAACCCT
binding signal (MBP-Miz-1-FL [5]): 2 fold reduction of bound labeled P1 | binding signal (MBP-Miz-1-FL [6]): 6.4 fold reduction of bound labeled P2

B4: P1 (dsDNA)
DNA 1: GAATTATCGGTAATCCATCGAGGT
DNA 2: ACCTCGATGGATTACCGATAATTC
binding signal (MBP-Miz-1-FL [7]): 5.3 fold reduction of bound labeled P1 | binding signal (MBP-Miz-1-FL [8]): 4.8 fold reduction of bound labeled P2 | binding signal [9]: ~2.5 fold bound intensity P1 over P2
